# Measurements: PMC9352680, “A comprehensive thermodynamic model for RNA binding by the Saccharomyces cerevisiae Pumilio protein PUF4”
# B1: Ib_S2_P3E.1_K3.1_C3.1_H3.1_[G2C]_A3.1_F3.1_[A8T]_T3.1 (ssRNA)
# RNA: UUUGAUUAAUAUGAUAUCGUUCUUUCUUCUAUAUUUUCUUUCUCGAUAUCAUAUUAAUCUUU
# B2: Ib_S2_P3E.1_K3.1_C3.1_H3.1_[A4G]_A3.1_F3.1_[A8C]_T3.1 (ssRNA)
# RNA: UUUGAUUAAUAUGAUAUCGUUCUUUCUUGUGUAUCUUCUUUCUCGAUAUCAUAUUAAUCUUU
# B3: Ib_S2_P3E.1_K3.1_C3.1_H3.1_[A4C]_A3.1_F3.1_[A8C]_T3.1 (ssRNA)
# RNA: UUUGAUUAAUAUGAUAUCGUUCUUUCUUGUCUAUCUUCUUUCUCGAUAUCAUAUUAAUCUUU
# B4: Ib_S2_P3E.1_K3.1_C3.1_H3.1_[A4G]_A3.1_F3.1_[A8T]_T3.1 (ssRNA)
# RNA: UUUGAUUAAUAUGAUAUCGUUCUUUCUUGUGUAUUUUCUUUCUCGAUAUCAUAUUAAUCUUU
# B5: Ib_S2_P3E.1_K3.1_C3.1_H3.1_[T3C]_A3.1_F3.1_[A8C]_T3.1 (ssRNA)
# RNA: UUUGAUUAAUAUGAUAUCGUUCUUUCUUGCAUAUCUUCUUUCUCGAUAUCAUAUUAAUCUUU
# Target: T1, PUF4 RNA-binding domain (Saccharomyces cerevisiae, UniProt P25339 537-888)
# T1 sequence: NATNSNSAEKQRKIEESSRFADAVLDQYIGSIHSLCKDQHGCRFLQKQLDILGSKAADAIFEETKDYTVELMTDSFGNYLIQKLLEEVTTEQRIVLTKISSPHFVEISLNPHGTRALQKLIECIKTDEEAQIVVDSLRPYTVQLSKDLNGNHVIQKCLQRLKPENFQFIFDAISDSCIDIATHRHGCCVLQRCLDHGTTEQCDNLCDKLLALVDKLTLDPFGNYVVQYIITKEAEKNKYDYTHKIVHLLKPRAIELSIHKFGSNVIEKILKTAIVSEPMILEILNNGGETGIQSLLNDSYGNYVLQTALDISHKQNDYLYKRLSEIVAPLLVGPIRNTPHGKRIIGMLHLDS
# Experiment: Mg; RNA-MaP; 20 mM Na-HEPES pH 7.4, 30 mM KOAc, 0.75 mM MgCl2, 0.1% Tween-20, 5% glycerol, 0.1 mg/mL BSA, 2 mM DTT; 25 C; 0.0125-409.6 nM protein
# Conditions: tags: N-His6-TEV cleaved; C-SNAP kept, Cy3B-labelled; label: tethered on chip by stalled RNA polymerase
row,Binder,Kd
1,UCUCUUUGUAUUAUCCUAUCUCUU (ssRNA) [Ie_S1_P5E.1_K5.1_C5.1_H5.1_A5.1_F5.1_[+8CC]_T5.1],26.3 nM
2,UCUCUUUGUAUUUUCCUAUUAUCUCUU (ssRNA) [Ie_S1_P5E.1_K5.1_C5.1_H5.1_A5.1_[+6TTCCT]_F5.1_T5.1],26.7 nM
3,UCUCUUUGUAUUACCUCUUUAUCUCUU (ssRNA) [Ie_S1_P5E.1_K5.1_C5.1_H5.1_A5.1_[+7CCTCT]_F5.1_T5.1],412 nM
4,UCUCUUUGUAUUAUCUCUAUCUCUU (ssRNA) [Ie_S1_P5E.1_K5.1_C5.1_H5.1_A5.1_F5.1_[+8CTC]_T5.1],28.6 nM
5,UCUCUUUGUAUUAUCUUAUCUCUU (ssRNA) [Ie_S1_P5E.1_K5.1_C5.1_H5.1_A5.1_[+7TC]_F5.1_T5.1],15.7 nM
6,UCUCUUUGUAUUAUUUCCUUAUCUCUU (ssRNA) [Ie_S1_P5E.1_K5.1_C5.1_H5.1_A5.1_F5.1_[+8TTCCT]_T5.1],17.1 nM
7,UCUCUUUGUAUUAUCUCUUUAUCUCUU (ssRNA) [Ie_S1_P5E.1_K5.1_C5.1_H5.1_A5.1_[+7TCTCT]_F5.1_T5.1],40.6 nM
8,UCUCUUUGUAUUAUCUUUAUCUCUU (ssRNA) [Ie_S1_P5E.1_K5.1_C5.1_H5.1_A5.1_F5.1_[+8CTT]_T5.1],19.2 nM
9,UCUCUUUGUAUUAUUUUAUCUCUU (ssRNA) [Ie_S1_P5E.1_K5.1_C5.1_H5.1_A5.1_[+7TT]_F5.1_T5.1],15.6 nM
10,UCUCUUUGUAUUACCCUUUUAUCUCUU (ssRNA) [Ie_S1_P5E.1_K5.1_C5.1_H5.1_A5.1_[+7CCCTT]_F5.1_T5.1],143 nM
11,UCUCUUUGUAUUAUCCUCUUAUCUCUU (ssRNA) [Ie_S1_P5E.1_K5.1_C5.1_H5.1_A5.1_F5.1_[+8CCTCT]_T5.1],23.1 nM
12,UCUCUUUGUAUUAUCCCUUUAUCUCUU (ssRNA) [Ie_S1_P5E.1_K5.1_C5.1_H5.1_A5.1_F5.1_[+8CCCTT]_T5.1],23.1 nM
13,B1,1310 nM
14,B2,15.7 nM
15,B3,2130 nM
16,B4,8.99 nM
17,B5,> 2300 nM
18,UCUCUUUGUAUUAUUCUAUCUCUU (ssRNA) [Ie_S1_P5E.1_K5.1_C5.1_H5.1_A5.1_F5.1_[+8TC]_T5.1],19.9 nM
19,UCUCUUUGUAUUAUUUCCAUCUCUU (ssRNA) [Ie_S1_P5E.1_K5.1_C5.1_H5.1_A5.1_F5.1_[+9TCC]_T5.1],20.4 nM
20,UCUCUUUGUAUUAUCCUUAUCUCUU (ssRNA) [Ie_S1_P5E.1_K5.1_C5.1_H5.1_A5.1_F5.1_[+8CCT]_T5.1],20.7 nM
21,UCUCUUUGUAUUACUUUAUCUCUU (ssRNA) [Ie_S1_P5E.1_K5.1_C5.1_H5.1_A5.1_[+7CT]_F5.1_T5.1],37.3 nM
22,UCUCUUUGUAUUAUUCCUUUAUCUCUU (ssRNA) [Ie_S1_P5E.1_K5.1_C5.1_H5.1_A5.1_[+7TTCCT]_F5.1_T5.1],16.7 nM
23,UCUCUUUGUAUUAUCCCUUAUCUCUU (ssRNA) [Ie_S1_P5E.1_K5.1_C5.1_H5.1_A5.1_F5.1_[+8CCCT]_T5.1],33.5 nM

row,Binder,Kd
1,UCUCUUUGUAUUAUCUCUUAUCUCUU (ssRNA) [Ie_S1_P5E.1_K5.1_C5.1_H5.1_A5.1_[+7TCTC]_F5.1_T5.1],22.2 nM
2,UCUCUUUGUAUUAUCCCUAUCUCUU (ssRNA) [Ie_S1_P5E.1_K5.1_C5.1_H5.1_A5.1_F5.1_[+8CCC]_T5.1],33.8 nM
3,UCUCUUUGUAUUAUUCCUUAUCUCUU (ssRNA) [Ie_S1_P5E.1_K5.1_C5.1_H5.1_A5.1_[+7TTCC]_F5.1_T5.1],13.8 nM
4,UCUCUUUGUAUUACCUUAUCUCUU (ssRNA) [Ie_S1_P5E.1_K5.1_C5.1_H5.1_A5.1_[+7CC]_F5.1_T5.1],76.7 nM
5,UCUCUUUGUAUUAUCUCUCUAUCUCUU (ssRNA) [Ie_S1_P5E.1_K5.1_C5.1_H5.1_A5.1_F5.1_[+8CTCTC]_T5.1],21.4 nM
6,UCUCUUUGUAUUAUUUCUCAUCUCUU (ssRNA) [Ie_S1_P5E.1_K5.1_C5.1_H5.1_A5.1_F5.1_[+9TCTC]_T5.1],16.3 nM
7,UCUCUUUGUAUUAUUCCCUAUCUCUU (ssRNA) [Ie_S1_P5E.1_K5.1_C5.1_H5.1_A5.1_F5.1_[+9CCCT]_T5.1],16.2 nM
8,UCUCUUUGUAUUACCUCUUAUCUCUU (ssRNA) [Ie_S1_P5E.1_K5.1_C5.1_H5.1_A5.1_[+7CCTC]_F5.1_T5.1],428 nM
9,UCUCUUUGUAUUCCUCUAUUAUCUCUU (ssRNA) [Ie_S1_P5E.1_K5.1_C5.1_H5.1_A5.1_[+6CCTCT]_F5.1_T5.1],66.2 nM
10,UCUCUUUGUAUUAUUUUUAUCUCUU (ssRNA) [Ie_S1_P5E.1_K5.1_C5.1_H5.1_A5.1_F5.1_[+8TTT]_T5.1],13.4 nM
11,UCUCUUUGUAUUAUUCCUAUCUCUU (ssRNA) [Ie_S1_P5E.1_K5.1_C5.1_H5.1_A5.1_F5.1_[+9CCT]_T5.1],25.5 nM
12,UCUCUUUGUAUUAUUUUCCAUCUCUU (ssRNA) [Ie_S1_P5E.1_K5.1_C5.1_H5.1_A5.1_F5.1_[+9TTCC]_T5.1],19.4 nM
13,UCUCUUUGUAUUAUCCUCUAUCUCUU (ssRNA) [Ie_S1_P5E.1_K5.1_C5.1_H5.1_A5.1_F5.1_[+8CCTC]_T5.1],31.9 nM
14,UCUCUUUGUAUUAUUCUUAUCUCUU (ssRNA) [Ie_S1_P5E.1_K5.1_C5.1_H5.1_A5.1_F5.1_[+8TCT]_T5.1],16.7 nM
15,UCUCUUUGUAUUAUUUCCUAUCUCUU (ssRNA) [Ie_S1_P5E.1_K5.1_C5.1_H5.1_A5.1_F5.1_[+8TTCC]_T5.1],15 nM
16,UCUCUUUGUAUUAUUUCUAUCUCUU (ssRNA) [Ie_S1_P5E.1_K5.1_C5.1_H5.1_A5.1_F5.1_[+8TTC]_T5.1],18.2 nM
17,UCUCUUUGUAUUACCCUUUAUCUCUU (ssRNA) [Ie_S1_P5E.1_K5.1_C5.1_H5.1_A5.1_[+7CCCT]_F5.1_T5.1],304 nM
18,UCUCUUUGUAUUACUCUUUAUCUCUU (ssRNA) [Ie_S1_P5E.1_K5.1_C5.1_H5.1_A5.1_[+7CTCT]_F5.1_T5.1],98.9 nM
19,UCUCUUUGUAUUAUUUAUCUCUU (ssRNA) [Ie_S1_P5E.1_K5.1_C5.1_H5.1_A5.1_F5.1_[+8T]_T5.1],8.84 nM
20,UCUCUUUGUAUUAUUCUCUUAUCUCUU (ssRNA) [Ie_S1_P5E.1_K5.1_C5.1_H5.1_A5.1_F5.1_[+8TCTCT]_T5.1],16.8 nM
21,UCUCUUUGUAUUAUUCAUCUCUU (ssRNA) [Ie_S1_P5E.1_K5.1_C5.1_H5.1_A5.1_F5.1_[+9C]_T5.1],25.3 nM
22,UCUCUUUGUAUUAUUCUCUAUCUCUU (ssRNA) [Ie_S1_P5E.1_K5.1_C5.1_H5.1_A5.1_F5.1_[+8TCTC]_T5.1],17.8 nM
23,UCUCUUUGUAUUACCCUUAUCUCUU (ssRNA) [Ie_S1_P5E.1_K5.1_C5.1_H5.1_A5.1_[+7CCC]_F5.1_T5.1],209 nM
